Measurements reported in the supplement of paper PMC7877785.
± gives the uncertainty stated by the source.

Assay: self-splicing fitness, log relative to wild type (ln ratio); higher = more splicing; Tetrahymena group I intron in knt gene, E. coli kanamycin selection, DiMSum; sequences stand for … in CUCUCU…GGAGGGAAAAGUUAUCAGGCAUGCACCUGGUAGCUAGUCUUUAAACCAAUAGAUUGCAUCGGUUUAAAAGGCAAGACCGUCAAAUUGCGGGAAAGGGGUCAACAGCCGUUCAGUACCAAGUCUCAGGGGAAACUUUGAGAUGGCCUUGCAAAGGGUAUGGUAAUAAGCUGACGGACAUGGUCCUAACCACGCAGCCAAGUCCUAAGUCAACAGAUCUUCUGUUGAUAUGGAUGCAGUUCACAGACUAAAUGUCGGUCGGGGAAGAUGUAUUCUUCUCAUAAGAUAUAGUCGGACCUCUCCUUAAUGGGAGCUAGCGGAUGAAGUGAUGCAACACUGGAGCCGCUGGGAACUAAUUUGUAUGCGAAAGUAUAUUGAUUAGUUUUGGAGUACUCGUGGUCG
How it was run: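 DiMSum derived fitness as the error-weighted combination of fold changes across replicates, kanamycin versus no kanamycin, normalised to wild type. E. coli BL21(DE3) held the library, which randomised all eight P1ex-region intron nucleotides within the knt kanamycin-resistance gene on pET-22b(+). Six replicate transformations grew overnight at 37°C or 30°C on LB agar with or without 25 μg/mL kanamycin, also containing 100 μg/mL carbenicillin, 50 μM IPTG and 0.2% rhamnose, and pooled colonies were amplicon-sequenced on an Illumina HiSeq 2500.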

Sequence | self-splicing fitness (ln) (30 °C) | self-splicing fitness (ln) (37 °C)
GUUGAGCAAUAUUACGGGGC | -2.38 ± 0.19 | -2.84 ± 0.29
GUUGAGCAAUAUUACGGUCA | -1.81 ± 0.26 | -2.45 ± 0.29
GUUGAGCAAUAUUACGGUCC | -2.05 ± 0.15 | -1.3 ± 0.19
GUUGAGCAAUAUUACGGUCU | -3.49 ± 0.21 | -2.56 ± 0.18
GUUGAGCAAUAUUACGUCAA | -2.76 ± 0.28 | 
GUUGAGCAAUAUUACGUCAG | -2.67 ± 0.17 | -2.86 ± 0.31
GUUGAGCAAUAUUACGUCAU | -2.26 ± 0.21 | -2.44 ± 0.38
GUUGAGCAAUAUUACGUCCU | -1.27 ± 0.17 | -1.47 ± 0.21
GUUGAGCAAUAUUACGUUCC | -1.13 ± 0.26 | -1.31 ± 0.34
GUUUAGCAAUAUUACGAAAU | -1.54 ± 0.11 | -1.85 ± 0.19
GUUUAGCAAUAUUACGACAC | -0.84 ± 0.091 | 0.0746 ± 0.14
GUUUAGCAAUAUUACGACAG | -3.68 ± 0.32 | -2.43 ± 0.34
GUUUAGCAAUAUUACGAUAG | -3.5 ± 0.32 | -1.88 ± 0.31
GUUUAGCAAUAUUACGCCAC | -1.72 ± 0.46 | 
GUUUAGCAAUAUUACGCUGU | -1.52 ± 0.12 | -2 ± 0.14
GUUUAGCAAUAUUACGGAUU | -1.48 ± 0.097 | -0.737 ± 0.12
GUUUAGCAAUAUUACGGGUG | -2.84 ± 0.21 | -1.53 ± 0.17
GUUUAGCAAUAUUACGUACU | -0.0508 ± 0.3 | 0.333 ± 0.33
GUUUAGCAAUAUUACGUAGC | -1.61 ± 0.2 | -0.831 ± 0.17
GUUUAGCAAUAUUACGUAGU | -1.84 ± 0.14 | -0.706 ± 0.14
GUUUAGCAAUAUUACGUCCA | -1.53 ± 0.24 | -1.18 ± 0.28
GUUUAGCAAUAUUACGUGAA | -1.35 ± 0.12 | -2.04 ± 0.18
GUUUAGCAAUAUUACGUUCU | -1.41 ± 0.14 | -0.628 ± 0.17
GUUUAGCAAUAUUACGUUGC | -3.73 ± 0.27 | -2.59 ± 0.34
UAAAAGCAAUAUUACGACCG | 0.0682 ± 0.1 | 0.499 ± 0.15

Sequence | self-splicing fitness (ln) (30 °C) | self-splicing fitness (ln) (37 °C)
UAAAAGCAAUAUUACGACUG | 0.248 ± 0.1 | -0.671 ± 0.12
UAAAAGCAAUAUUACGAGCG | -0.13 ± 0.099 | -0.191 ± 0.11
UAAAAGCAAUAUUACGAUCC | -2.13 ± 0.34 | -2.05 ± 0.27
UAAAAGCAAUAUUACGAUCU | -0.413 ± 0.079 | 0.0961 ± 0.099
UAAAAGCAAUAUUACGCACA | -0.0521 ± 0.12 | 0.516 ± 0.16
UAAAAGCAAUAUUACGCAGG | -1.55 ± 0.12 | -1.2 ± 0.11
UAAAAGCAAUAUUACGCCUG | -0.364 ± 0.088 | 0.229 ± 0.12
UAAAAGCAAUAUUACGCGAG | -0.897 ± 0.075 | -0.186 ± 0.095
UAAAAGCAAUAUUACGGAUC | -2.28 ± 0.29 | -1.81 ± 0.24
UAAAAGCAAUAUUACGGCAG | -0.504 ± 0.079 | -0.106 ± 0.097
UAAAAGCAAUAUUACGGCCC | -2.11 ± 0.34 | -1.28 ± 0.33
UAAAAGCAAUAUUACGGUCA | 0.0761 ± 0.086 | 0.333 ± 0.087
UAAAAGCAAUAUUACGGUUG | -1.53 ± 0.075 | -0.701 ± 0.096
UAAAAGCAAUAUUACGUAGA | -2.7 ± 0.12 | -1.45 ± 0.14
UAAAAGCAAUAUUACGUCCA | 0.0284 ± 0.091 | -0.623 ± 0.12
UAAAAGCAAUAUUACGUGAU | -2.46 ± 0.11 | -2.04 ± 0.16
UAAAAGCAAUAUUACGUGUA | -1.86 ± 0.055 | -0.743 ± 0.056
UAAAAGCAAUAUUACGUGUG | -1.07 ± 0.052 | -0.712 ± 0.069
UAAAAGCAAUAUUACGUUGU | -3.71 ± 0.14 | -1.96 ± 0.14
UAACAGCAAUAUUACGAAAC | -4.62 ± 0.38 | -2.75 ± 0.36
UAACAGCAAUAUUACGAACU | -0.722 ± 0.11 | -0.651 ± 0.15
UAACAGCAAUAUUACGACCA | -0.808 ± 0.08 | 0.224 ± 0.11
UAACAGCAAUAUUACGACUA | -0.142 ± 0.049 | -0.212 ± 0.057
UAACAGCAAUAUUACGAUCG | -0.667 ± 0.07 | -0.00548 ± 0.098
UAACAGCAAUAUUACGAUUC | -1.68 ± 0.1 | -1.01 ± 0.12

Sequence | self-splicing fitness (ln) (30 °C) | self-splicing fitness (ln) (37 °C)
UAACAGCAAUAUUACGCACU | -1.26 ± 0.06 | 0.231 ± 0.087
UAACAGCAAUAUUACGCAGA | -2.78 ± 0.14 | -1.47 ± 0.087
UAACAGCAAUAUUACGCAUC | -4.63 ± 0.22 | -2.51 ± 0.17
UAACAGCAAUAUUACGCCAU | -3.93 ± 0.22 | -2.11 ± 0.17
UAACAGCAAUAUUACGCCGG | -0.84 ± 0.067 | -0.697 ± 0.091
UAACAGCAAUAUUACGCCUU | -1.48 ± 0.074 | -0.968 ± 0.094
UAACAGCAAUAUUACGCGAC | -3.97 ± 0.29 | -2.05 ± 0.16
UAACAGCAAUAUUACGCGAG | -0.783 ± 0.052 | -0.508 ± 0.066
UAACAGCAAUAUUACGCGAU | -3.97 ± 0.32 | -2.36 ± 0.23
UAACAGCAAUAUUACGCUUU | -3.43 ± 0.14 | -1.82 ± 0.13
UAACAGCAAUAUUACGGAUA | -0.969 ± 0.088 | -0.486 ± 0.1
UAACAGCAAUAUUACGGCGA | -0.267 ± 0.077 | -0.198 ± 0.08
UAACAGCAAUAUUACGGCUC | -1.77 ± 0.1 | -0.836 ± 0.14
UAACAGCAAUAUUACGGGAG | -2.3 ± 0.1 | -1.62 ± 0.096
UAACAGCAAUAUUACGGGGG | -3.25 ± 0.27 | -1.9 ± 0.17
UAACAGCAAUAUUACGGUCU | -1.5 ± 0.068 | -0.783 ± 0.075
UAACAGCAAUAUUACGUGGU | -2.87 ± 0.12 | -2.93 ± 0.2
UAACAGCAAUAUUACGUUAA | -3.25 ± 0.2 | -1.6 ± 0.12
UAAGAGCAAUAUUACGAAAC |  | -2.99 ± 0.37
UAAGAGCAAUAUUACGACAG | -3.17 ± 0.25 | -2.34 ± 0.23
UAAGAGCAAUAUUACGACUU | -2.79 ± 0.18 | -0.528 ± 0.15
UAAGAGCAAUAUUACGAGGU | -3.48 ± 0.23 | -2.56 ± 0.27
UAAGAGCAAUAUUACGAUUA | -0.804 ± 0.1 | 0.2 ± 0.1
UAAGAGCAAUAUUACGCCCA | -2.62 ± 0.26 | -2.09 ± 0.41
UAAGAGCAAUAUUACGCCCU | -3.1 ± 0.31 | -2.01 ± 0.41

Sequence | self-splicing fitness (ln) (30 °C) | self-splicing fitness (ln) (37 °C)
UAAGAGCAAUAUUACGCCGG | -2.97 ± 0.31 | -1.72 ± 0.26
UAAGAGCAAUAUUACGCGGU | -3.3 ± 0.3 | -2.15 ± 0.34
UAAGAGCAAUAUUACGGAUC | -3.68 ± 0.46 | -1.64 ± 0.31
UAAGAGCAAUAUUACGGCAA | -2.23 ± 0.18 | -2.03 ± 0.14
UAAGAGCAAUAUUACGGCAU | -2.3 ± 0.39 | -1 ± 0.3
UAAGAGCAAUAUUACGGGAG | -3.33 ± 0.24 | -1.83 ± 0.19
UAAGAGCAAUAUUACGGGGU | -2.67 ± 0.19 | -1.44 ± 0.49
UAAGAGCAAUAUUACGUAAU | -3.14 ± 0.15 | -3.17 ± 0.29
UAAGAGCAAUAUUACGUACG | -1.42 ± 0.16 | -1.73 ± 0.17
UAAGAGCAAUAUUACGUACU | -2.79 ± 0.25 | -0.993 ± 0.2
UAAGAGCAAUAUUACGUCGA | -3.95 ± 0.3 | -1.74 ± 0.17
UAAGAGCAAUAUUACGUUCC |  | -1.98 ± 0.39
UAAUAGCAAUAUUACGAAGC |  | -1.83 ± 0.33
UAAUAGCAAUAUUACGACGU | -3.74 ± 0.33 | -1.76 ± 0.18
UAAUAGCAAUAUUACGAUAU | -3.99 ± 0.47 | -1.52 ± 0.25
UAAUAGCAAUAUUACGAUCA | -0.744 ± 0.085 | 0.387 ± 0.1
UAAUAGCAAUAUUACGCAAC | -2.64 ± 0.4 | -1.73 ± 0.37
UAAUAGCAAUAUUACGCGCU | 0.173 ± 0.2 | -0.565 ± 0.18
UAAUAGCAAUAUUACGCGGA |  | -1.82 ± 0.19
UAAUAGCAAUAUUACGCGUG | -1.37 ± 0.1 | -0.125 ± 0.12
UAAUAGCAAUAUUACGCUCU | -1.03 ± 0.14 | -0.42 ± 0.18
UAAUAGCAAUAUUACGGAAG | -3.02 ± 0.21 | -0.76 ± 0.16
